Data taken from IntAct's records for PubMed 19411703.

B1: Phospholipid-transporting ATPase DRS2 (Saccharomyces cerevisiae), P39524 (parent)
chain: MNDDRETPPKRKPGEDDTLFDIDFLDDTTSHSGSRSKVTNSHANANYIPPSHVLPEETIDLDADDDNIENDVHENLFMSNNHDDQTSWNANRFDSDAYQPQSLRAVKPPGLFARFGNGLKNAFTFKRKKGPESFEMNHYNAVTNNELDDNYLDSRNKFNIKILFNRYILRKNVGDAEGNGEPRVIHINDSLANSSFGYSDNHISTTKYNFATFLPKFLFQEFSKYANLFFLCTSAIQQVPHVSPTNRYTTIGTLLVVLIVSAMKECIEDIKRANSDKELNNSTAEIFSEAHDDFVEKRWIDIRVGDIIRVKSEEPIPADTIILSSSEPEGLCYIETANLDGETNLKIKQSRVETAKFIDVKTLKNMNGKVVSEQPNSSLYTYEGTMTLNDRQIPLSPDQMILRGATLRNTAWIFGLVIFTGHETKLLRNATATPIKRTAVEKIINRQIIALFTVLIVLILISSIGNVIMSTADAKHLSYLYLEGTNKAGLFFKDFLTFWILFSNLVPISLFVTVELIKYYQAFMIGSDLDLYYEKTDTPTVVRTSSLVEELGQIEYIFSDKTGTLTRNIMEFKSCSIAGHCYIDKIPEDKTATVEDGIEVGYRKFDDLKKKLNDPSDEDSPIINDFLTLLATCHTVIPEFQSDGSIKYQAASPDEGALVQGGADLGYKFIIRKPNSVTVLLEETGEEKEYQLLNICEFNSTRKRMSAIFRFPDGSIKLFCKGADTVILERLDDEANQYVEATMRHLEDYASEGLRTLCLAMRDISEGEYEEWNSIYNEAATTLDNRAEKLDEAANLIEKNLILIGATAIEDKLQDGVPETIHTLQEAGIKIWVLTGDRQETAINIGMSCRLLSEDMNLLIINEETRDDTERNLLEKINALNEHQLSTHDMNTLALVIDGKSLGFALEPELEDYLLTVAKLCKAVICCRVSPLQKALVVKMVKRKSSSLLLAIGDGANDVSMIQAAHVGVGISGMEGMQAARSADIAVGQFKFLKKLLLVHGSWSYQRISVAILYSFYKNTALYMTQFWYVFANAFSGQSIMESWTMSFYNLFFTVWPPFVIGVFDQFVSSRLLERYPQLYKLGQKGQFFSVYIFWGWIINGFFHSAIVFIGTILIYRYGFALNMHGELADHWSWGVTVYTTSVIIVLGKAALVTNQWTKFTLIAIPGSLLFWLIFFPIYASIFPHANISREYYGVVKHTYGSGVFWLTLIVLPIFALVRDFLWKYYKRMYEPETYHVIQEMQKYNISDSRPHVQQFQNAIRKVRQVQRMKKQRGFAFSQAEEGGQEKIVRMYDTTQKRGKYGELQDASANPFNDNNGLGSNDFESAEPFIENPFADGNQNSNRFSSSRDDISFDI
partner: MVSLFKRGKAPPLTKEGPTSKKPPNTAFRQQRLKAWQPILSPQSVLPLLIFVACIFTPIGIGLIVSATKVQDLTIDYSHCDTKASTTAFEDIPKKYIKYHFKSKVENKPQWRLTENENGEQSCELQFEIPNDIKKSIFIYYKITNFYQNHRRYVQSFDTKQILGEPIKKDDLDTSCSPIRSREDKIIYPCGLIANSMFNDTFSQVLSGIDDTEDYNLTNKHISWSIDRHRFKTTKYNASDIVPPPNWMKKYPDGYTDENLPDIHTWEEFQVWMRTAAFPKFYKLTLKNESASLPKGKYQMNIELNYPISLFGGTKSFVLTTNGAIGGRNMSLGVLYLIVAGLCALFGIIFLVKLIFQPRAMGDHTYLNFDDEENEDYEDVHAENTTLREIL
B2: Phospholipid-transporting ATPase DNF1 (Saccharomyces cerevisiae), P32660 (parent)
chain: MSGTFHGDGHAPMSPFEDTFQFEDNSSNEDTHIAPTHFDDGATSNKYSRPQVSFNDETPKNKREDAEEFTFNDDTEYDNHSFQPTPKLNNGSGTFDDVELDNDSGEPHTNYDGMKRFRMGTKRNKKGNPIMGRSKTLKWARKNIPNPFEDFTKDDIDPGAINRAQELRTVYYNMPLPKDMIDEEGNPIMQYPRNKIRTTKYTPLTFLPKNILFQFHNFANVYFLVLIILGAFQIFGVTNPGLSAVPLVVIVIITAIKDAIEDSRRTVLDLEVNNTKTHILEGVENENVSTDNISLWRRFKKANSRLLFKFIQYCKEHLTEEGKKKRMQRKRHELRVQKTVGTSGPRSSLDSIDSYRVSADYGRPSLDYDNLEQGAGEANIVDRSLPPRTDCKFAKNYWKGVKVGDIVRIHNNDEIPADIILLSTSDTDGACYVETKNLDGETNLKVRQSLKCTNTIRTSKDIARTKFWIESEGPHSNLYTYQGNMKWRNLADGEIRNEPITINNVLLRGCTLRNTKWAMGVVMFTGGDTKIMLNSGITPTKKSRISRELNFSVVINFVLLFILCFVSGIANGVYYDKKGRSRFSYEFGTIAGSAATNGFVSFWVAVILYQSLVPISLYISVEIIKTAQAAFIYGDVLLYNAKLDYPCTPKSWNISDDLGQVEYIFSDKTGTLTQNVMEFKKCTINGVSYGRAYTEALAGLRKRQGIDVETEGRREKAEIAKDRDTMIDELRALSGNSQFYPEEVTFVSKEFVRDLKGASGEVQQRCCEHFMLALALCHSVLVEANPDNPKKLDLKAQSPDEAALVATARDVGFSFVGKTKKGLIIEMQGIQKEFEILNILEFNSSRKRMSCIVKIPGLNPGDEPRALLICKGADSIIYSRLSRQSGSNSEAILEKTALHLEQYATEGLRTLCIAQRELSWSEYEKWNEKYDIAAASLANREDELEVVADSIERELILLGGTAIEDRLQDGVPDCIELLAEAGIKLWVLTGDKVETAINIGFSCNLLNNEMELLVIKTTGDDVKEFGSEPSEIVDALLSKYLKEYFNLTGSEEEIFEAKKDHEFPKGNYAIVIDGDALKLALYGEDIRRKFLLLCKNCRAVLCCRVSPSQKAAVVKLVKDSLDVMTLAIGDGSNDVAMIQSADVGIGIAGEEGRQAVMCSDYAIGQFRYLARLVLVHGRWSYKRLAEMIPEFFYKNMIFALALFWYGIYNDFDGSYLYEYTYMMFYNLAFTSLPVIFLGILDQDVNDTISLVVPQLYRVGILRKEWNQRKFLWYMLDGLYQSIICFFFPYLVYHKNMIVTSNGLGLDHRYFVGVYVTTIAVISCNTYVLLHQYRWDWFSGLFIALSCLVVFAWTGIWSSAIASREFFKAAARIYGAPSFWAVFFVAVLFCLLPRFTYDSFQKFFYPTDVEIVREMWQHGHFDHYPPGYDPTDPNRPKVTKAGQHGEKIIEGIALSDNLGGSNYSRDSVVTEEIPMTFMHGEDGSPSGYQKQETWMTSPKETQDLLQSPQFQQAQTFGRGPSTNVRSSLDRTREQMIATNQLDNRYSVERARTSLDLPGVTNAASLIGTQQNN
partner: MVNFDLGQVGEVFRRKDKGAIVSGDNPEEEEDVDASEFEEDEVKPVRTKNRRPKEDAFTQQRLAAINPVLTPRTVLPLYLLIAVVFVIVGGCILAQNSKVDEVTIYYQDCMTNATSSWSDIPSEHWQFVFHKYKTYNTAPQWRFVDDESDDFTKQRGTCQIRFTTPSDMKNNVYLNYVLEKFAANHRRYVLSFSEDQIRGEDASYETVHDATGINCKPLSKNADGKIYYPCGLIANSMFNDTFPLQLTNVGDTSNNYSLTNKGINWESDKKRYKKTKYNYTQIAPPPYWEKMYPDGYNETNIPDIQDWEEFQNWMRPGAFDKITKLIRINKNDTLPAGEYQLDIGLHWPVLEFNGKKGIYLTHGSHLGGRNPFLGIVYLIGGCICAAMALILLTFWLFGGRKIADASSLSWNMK

Variants of: B1
Conditions: with cdc50_yeast CDC50, P25656
In the case of D560N, the “effect of a mutation on the interaction” value is reported as “decreasing interaction strength”.

Variants of: B1
Conditions: with cdc50_yeast CDC50, P25656
Remark: another data set of the same source
For G341L, the “effect of a mutation on the interaction” value was “decreasing interaction strength”. With E342Q the “effect of a mutation on the interaction” value was “with no effect”. D560E was tested, and the “effect of a mutation on the interaction” value was “decreasing interaction strength”.

Variants of: B2
Conditions: with lem3_yeast LEM3, P42838
D667E was tested, and the “effect of a mutation on the interaction” value was “disrupting interaction strength”. With D667N the “effect of a mutation on the interaction” value was “disrupting interaction strength”.
